Data published in PMC11414720, “Molecular basis of TMED9 oligomerization and entrapment of misfolded protein cargo in the early secretory pathway” (Science Advances, 2024).
Changes are numbered by the printed parent chain. In names and notes the source's numbering stands. Several values for one entry are separate records, joined by “and”; a condition that tells them apart may be missing. Identical values can stand only once.

Tests used:
[1] = target: the molecule itself; assay: SEC; gel filtration of overexpressed protein in octyl-β-glucoside, a harsher detergent
[2] = target: the molecule itself; assay: mass photometry; Refeyn TwoMP; samples in 0.003% LMNG, 0.0003% CHS diluted from 7 μM into 25 mM Hepes pH 7.4, 150 mM KCl, 1 mM DTT, measured within 10 s
[3] = target: the molecule itself; assay: cryo-EM structure; purified TMED9 at 1.7 mg/ml in 20 mM tris pH 8.0, 150 mM NaCl, 0.02% LMNG+CHS; octamer refined with C2 symmetry, dodecamer with no symmetry
[4] = target: the molecule itself; assay: SEC; Superose 6 gel filtration of TMED9 purified on anti-FLAG resin in LMNG+CHS (20 mM tris pH 8.0, 150 mM NaCl); solubilization by digitonin or glyco-diosgenin gave a similar size distribution

B1: full-length human TMED9 (transmembrane emp24 domain 9), FLAG-tagged (receptor, UniProt Q9BVK6 38-235, looked up)
chain: LYFHIGETEKKCFIEEIPDETMVIGNYRTQLYDKQREEYQPATPGLGMFVEVKDPEDKVILARQYGSEGRFTFTSHTPGEHQICLHSNSTKFSLFAGGMLRVHLDIQVGEHANDYAEIAAKDKLSELQLRVRQLVEQVEQIQKEQNYQRWREERFRQTSESTNQRVLWWSILQTLILVAIGVWQMRHLKSFFEAKKLV
notes: TMED9 (transmembrane emp24 domain 9), human, full length; Seen as octamer, dodecamer and higher-order oligomers; the rows are of the chain with itself; TMED9 has a signal peptide; No cleavage of the tag is described; also called WT TMED9; recombinant TMED9; source: Expi293F, transiently transfected, purified in LMNG+CHS (anti-FLAG resin, Superose 6 gel filtration); not shown: FLAG, N-terminal, …
B1 was tested, and the “stoichiometry N” value [1] was 2, the “stoichiometry N” value [2] was no less than 8 and the “stoichiometry N” value [3] was 8 and 12.

B2: TMED9 W205A (receptor, human, UniProt Q9BVK6 38-235, looked up)
chain: B1 chain with W168A
notes: TMED9, human, mutant of the full-length protein; also called CC interface mutation W205A
B2: binds [4].

B3: TMED9 Q177A (receptor, human, UniProt Q9BVK6 38-235, looked up)
chain: B1 chain with Q140A
notes: TMED9, human, mutant of the full-length protein; also called CC interface mutation Q177A
B3: binds [4].

B4: TMED9 R191E (receptor, human, UniProt Q9BVK6 38-235, looked up)
chain: B1 chain with R154E
notes: TMED9, human, mutant of the full-length protein; also called CC interface mutation R191E
B4: binds [4].

B5: TMED9 E190R (receptor, human, UniProt Q9BVK6 38-235, looked up)
chain: B1 chain with E153R
notes: TMED9, human, mutant of the full-length protein; also called CC domain mutation E190R
B5: binds [2].

B6: TMED9 R223E (for gel filtration and mass photometry) (receptor, human, UniProt Q9BVK6 38-235, looked up)
chain: B1 chain with R186E
notes: TMED9, human, mutant of the full-length protein
B6: binds [2].
